Measurements from patent US10801046B2, “Methods and materials for biosynthesizing multifunctional, multivariate molecules via carbon chain modification” (INVISTA NORTH AMERICA S.A.R.L., priority 2016, dated 2020).

B1: SEQ ID NO: 196: Chromera velia CCMP2878 carboxylate reductase (protein)
chain: MGAQCSAKNSLTYSIPYGEPQAEDESALYANPYMPELAGCDGLKSCWENFEVAVSSTGDKPAVGTREKQADGTLGKYVWKSWKEVAETVANLHAGLQSLDAFPLQSFPEESVQQTFKFLGVTGKNREEYLETMLAAYRAGVCLVPLYDTLGENTYEYCINQTGLKTVIVGDLKIASKLLHVAKKCECFKIIVCMDAVSDELKQEANASGVTIHSFEEVCEIGKQKPVDPTPAQSDMEINTICYTSGTTGNPKGVLVTHRALLTALSTSDELFKKEGFKIDFNDTHISYLPYAHVMERAVTEICVRRGMRIAFYSGDTTKIVDDIQLARPTVFFSVPRLYTRIYDRILSQAAAAGGIKKSLFDRALESKLTELRSTGNFTHKLWDAIVFSKIKDVLGGRVRFLVTGSAPMAKEVQEVLKVCFCCPMMEAFGMTETACCGTATAALDPTTGHVGGVVPGILLKVKGIPEMGYSPNDRGENGELMPRGELMVKGAAVFPGYFKEPEKTKEALDADGWLRTGDVCVINPNGSFKIIDRAKNIFKLAQGEYVAPEKIENIYIQCESVAQAFVTGYGTEKVLVCVVVPDEGYAKNWAKEKGLEGDAASLSALCATHGDLEAEVFKQIDAIGKARGLSGIEKAKAVRLYAEPFSVENDLLTATFKLKRHQANKTFKAQIDEMYAELNAKEKARGGS
modifications: Chromera velia CCMP2878
notes: Chromera velia CCMP2878 carboxylate reductase
B2: SEQ ID NO: 206: Phytophthora sojae (strain P6497) carboxylate reductase (protein)
chain: MGAGSSSELPMSQIDFDSYTGKRYTVEVPNTRDATHGPAYEVADKEPVNEDEMTLYHNFLRGCSIEHGTRPLYGRRTVDADTGKAGAFEWLTYNEVKTRVERVASGLKAVGALERQDVVGVFSKNQLEWCLVAHACDRMSYVLVPLYDTLGPDAVPFIVNHTELRVLFCGKKQFDVVMDCVKDCPTLKTIVQFEPVTEQQIQQAAAKNLELRSLEELELLGEADPKRADPPKPTDVSTLCYTSGTTGDPKGVILLQRNYAYVVRQMCKRMQIFPSDVHCSYLPLAHVFERSVLGVLQAHGASAGFYQGDLLTLMDDLVELKPTVFVSVPRLFNRVYDKITQGVAAAGGLKKILFDRALAAKLAGLPEGHKTHALWDALVFSKVRLALGGRVRLIFSGSAPLSAEVKEFMKVVFCCDVAEGYGLSETAAAVTVGSVDMPMGPHVGCPLIYGQVQLEDVPEMGYTSRDKPRPRGEILVKGPMIFSGYYKEPEKTREAIDERGWFHTGDIGCWNADGTLSIIDRKKNIFKLAQGEYVAAEKIENIYAKSKYVAQIFAYGDSLQSCLVGIVVPDPETAEAWAQEKGLTGADASAAKVATNPEFQKAVLADMARVAKEAQLRGFEFVKSVHFHPEPFSLEQGLITPTFKLKRPQLKAHFQQQINMLYEGLK
modifications: Phytophthora sojae (strain P6497)
notes: Phytophthora sojae (strain P6497) carboxylate reductase
B3: SEQ ID NO: 205: Kuraishia capsulata CBS 1993 carboxylate reductase (protein)
chain: MPSLPLPPYRAVFERAEDITRDALPFPPERNQRGIAVPGSVEPGYSAIYRSAATPDFLYDRVSPELDTYYRILKRSFEIFKDEDCVSERPQTGENSWSDKFVPRSYGEVYHDSLNFGSGLKYLLQKNEFRSGTEIPDKDYIVSIFSRNRAKWLVADISCTLFSLPNTALYDTLGPDTSTYILGLTKSPVVVAASDKISKLLDLKEADPAKLKNLIMLVAMDNLEPEVYSDLSRRAYKLNVKLYEWDQVTEAGILFPHEEVPPAPDSIYSLSFTSGTTGPPKGAILLHSGVAAGVAFTSATIDTPKQKAKLLSILPLAHIYERMTMALQLFRGGCLGFPHQPGPEHIVPNLRLFKPNLFSGVPRLFNKFEGVLKAATVHNPNASPAKRALAKRIIEWKMKQQCSKDGERGESILYDKLLNNKLRAALGFDNLYGVVTGSAPISAETIKFLKAALGVSFHQGYGLTETFAGVCVSAGLETDPGSCGVIGIATECRLKDTPELGYTSSDEGGPRGELLLRGSQVFPGYYKNEEETKKALDEDGWYHTGDIARIDSKCRIYVIDRVKNLFKLSQGEYVAPERIENIYLSSCTDFVSQIYVHGDSFSNYLVGIVGVDILGLSAFLKRKHPDLWRQVEGKTPEEILDIISSSRQLKSAILAQMNRNVSSAGLNGYEKLHNLKIGIEPLKVEDEVLTPTLKLKRNNALTKFNTDLKNLYEEGSLIKNEKL
modifications: Kuraishia capsulata CBS 1993
notes: Kuraishia capsulata CBS 1993 carboxylate reductase
B4: SEQ ID NO: 197: Cyberlindnera jadinii carboxylate reductase (protein, listed as Cyberlindnera jadinii)
chain: MNFNQPVNPQPVPGSRVEGYSEIFTNDPPVVLDPSMDTLSKMWNNAVANFANFDCMGVRKFHNTRKQQLDTFFTYDSYAEVDRKKHNISCGIIHLVTHHPKYRELLSIAGKPEFVVGILSPNRYEWMLVDLATRDFSLTNTALYPTLGQQSSQYILSVTESPIIFLTKDQIPKILEIKPELPLLNILVSLDDFDHDDHDLFVRAQSLGVSLVDFRAVEKIGERHPLPKDFNPPTTDTIYTISFTSGTTGNPKGVLIPHEMAACGIISCTMGLESPFELPKGAKRRQFGENVDQHGVQVTALCHLPLAHIYEREISNYALMSGFRLGFPSSTNPAMFFDDLKSIKPHYLASVPRVYNKLDALLKAKVKRGTPPHVVRKTFGLDHCRYLVSGSAPLGVETIKYLKQTLDIGFSVCYGSTETFAGFFFGDAFEDVITNSCGHPSASVQIRLRDVPEMGYHTNETPMRGELMVKGPQVFSEYFKNPKATADSFDKDGWFHTGDIVSMDSERRVYIIDRVKNFFKLQQGEFVTPERIENIYLAHSPLLTQLFVHGDSLQNFLVGVAGISLEYVQEMFKQDFGVAISQDEVLGLLQDPKYKAMLIKQLNHHVSGADLQGFEKIHNIHVDLEPLRLEDEVLTPTMKIKRENAKKKFAPILEKLYTEGSLVVKQKL
B5: SEQ ID NO: 198: Pestalotiopsis fici W106-1 carboxylate reductase (protein)
chain: MESYIEKARRYAQPPPPGAPQGVAVPNSKLPGRSAVYRHWRRGDELPDYFDPDLSSGYDMFEQTAKRQPDARCLGYRPYNGSTKSFGPYIWYSYDNVLKRSTDFGKGLAELLEANGVGGRQRPVGLWCANRPEWQFVDLGAMSQSLYSISLYETLGPAATEFLINHAEIPVVCASLEHIPALILAAPRCPSLKLIISLDPLTEEIDAPGTSRKELLSSLAAEKGLQVHDFRDVEKAGQASSRSLNRPRPDDIFTINYTSGTTGNPKGVVLRHSNAVAATVTCLTVYPMRSSDVLCSYLPLAHIYERFVEISAMYGGGSIGYFHGNPLELIDDLKLLRPTIFTSVPRLLNRMGSSIKAATIEQQGVKGALSRYIMETKMANIENDDPAKATNKHMVYDRIWGRKITAALGLDRTVHMMSGSAPLDGGLQQFLRIVFATEIVQGYGSTEMFAICLAQSAGDMSVRNCGGPAACVEVCLLDLPDMGYFSSDQPCPRGELLMRGPNVFSEYYKDDEETSKAFTEDGWFKTGDICAVDELGRFSIIDRRKNLLKLAQGEYISPEHIENVLLAQRPWLAQGYVHGDSAEAHLVGIFGVQPDIFCNFLNRTLGKECKPEDTDQLEAVLQEPEVRSAVVKELAMVGKSAKLNSYEIPRAVRLMIEPFTVENGLLTPTLKLKRPQTAKKFDHLIKEMYAETRKTSTLMAKL
modifications: Pestalotiopsis fici W106-1
notes: Pestalotiopsis fici W106-1 carboxylate reductase

Assay: In vivo carboxylate reductase screening, substrate consumption by LC-MS, heptanedioate
Format: cell-based, Escherichia coli
Conditions: 541 enzymes screened in vivo
Description: To screen carboxylate reductases in vivo, […] T7- pUC expression vectors was co-transformed into T7 Express lysY/Iq with the phosphopantetheinyl transferase sfp from Bacillus subtilis on a T7-pCDF expression vector. Biological duplicates of the resulting strains were incubated in 0.5 mL of terrific broth containing either 1 g/L heptanedioate or 1 g/L monomethyl heptanedioate and supplemented with 0.4 mM IPTG in 96-well deep well plates. The plates were incubated for 30 h at 30° C. in a shaking incubator. The cells were then pelleted, and culture supernatants from the same strains in media containing either heptanedioate or monomethyl heptanedioate were combined. The combined supernatants were analyzed by LC-MS to determine the concentration of heptanedioate and monomethyl heptanedioate. Carboxylate reductase activity on heptanedioate or monomethyl heptanedioate was reflected by consumption of the respective substrate in the medium.

Molecule	substrate preference, heptanedioic acid to 7-oxoheptanoate
B1	preferred acting upon heptanedioic acid to form 7-oxoheptanoate
B2	preferred acting upon heptanedioic acid to form 7-oxoheptanoate
B3	preferred acting upon heptanedioic acid to form 7-oxoheptanoate
B4	preferred acting upon heptanedioic acid to form 7-oxoheptanoate
B5	preferred acting upon heptanedioic acid to form 7-oxoheptanoate
